From US20200317768A1 (published 2020)
Changes are numbered by the printed parent chain.

T1: cynomolgus monkey FcγRIIa1 extracellular domain, His-tagged (cynomolgus monkey)
T1 construct: also called cyno FcγRIIa1; cynoFcgRIIa1; not shown: C-terminal His-tag
T1 chain: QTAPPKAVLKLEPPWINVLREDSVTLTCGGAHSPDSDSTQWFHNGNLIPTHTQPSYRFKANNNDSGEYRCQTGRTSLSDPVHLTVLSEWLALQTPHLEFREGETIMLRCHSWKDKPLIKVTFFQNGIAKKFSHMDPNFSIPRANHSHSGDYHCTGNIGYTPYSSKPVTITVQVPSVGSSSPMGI

T2: human FcγRIIaR extracellular domain, His-tagged (human, UniProt P12318 34-217)
T2 construct: also called human FcγRIIa (type R); FcgRIIaR; not shown: C-terminal His-tag
T2 chain: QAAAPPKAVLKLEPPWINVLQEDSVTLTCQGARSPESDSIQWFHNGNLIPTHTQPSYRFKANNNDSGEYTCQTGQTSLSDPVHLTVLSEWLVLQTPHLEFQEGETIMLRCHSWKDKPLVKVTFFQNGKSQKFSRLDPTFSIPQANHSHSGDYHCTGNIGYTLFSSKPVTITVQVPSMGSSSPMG

T3: cynomolgus monkey FcγRIIb extracellular domain, His-tagged (cynomolgus monkey)
T3 construct: also called cyno FcγRIIb; cynoFcγRIIb; not shown: C-terminal His-tag
T3 chain: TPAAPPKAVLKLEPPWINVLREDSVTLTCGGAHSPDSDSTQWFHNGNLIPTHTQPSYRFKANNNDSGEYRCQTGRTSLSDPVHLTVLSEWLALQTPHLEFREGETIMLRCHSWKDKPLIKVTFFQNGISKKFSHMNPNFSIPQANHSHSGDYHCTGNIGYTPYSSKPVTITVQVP

T4: cynomolgus monkey FcγRIIa2 extracellular domain, His-tagged (cynomolgus monkey)
T4 construct: also called cyno FcγRIIa2; cynoFcgRIIa2; not shown: C-terminal His-tag
T4 chain: T1 chain with P95T, T121A, I127K, A128S, K130N, D135N, R142Q

T5: cynomolgus monkey FcγRIIIaS extracellular domain, His-tagged (cynomolgus monkey, UniProt Q8SPW2 21-206 at identity 1.00))
T5 construct: also called cyno FcγRIIIaS; cynoFcγRIIIaS; not shown: C-terminal His-tag
T5 chain: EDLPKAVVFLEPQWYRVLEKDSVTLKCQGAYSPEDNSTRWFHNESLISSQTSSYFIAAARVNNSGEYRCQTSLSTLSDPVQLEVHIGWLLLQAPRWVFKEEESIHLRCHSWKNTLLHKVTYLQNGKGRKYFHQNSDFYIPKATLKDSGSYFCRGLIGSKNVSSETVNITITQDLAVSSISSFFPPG

T6: cynomolgus monkey FcγRIIa3 extracellular domain, His-tagged (cynomolgus monkey)
T6 construct: also called cyno FcγRIIa3; cynoFcgRIIa3; not shown: C-terminal His-tag
T6 chain: T1 chain with P95T, T121A, A128S, H133P, D135N

B1: M103205H795-MY470/M103202L889-SK1 (antibody, human IgG1, kappa)
heavy: QVTLKESGPVLVKPTETLTLTCTVSGIDLSHDDISWVRQAPGKGLEWVGIISYAGSTYYASWAKGRLTISKDTSKNQVVLTMTNMDPVDTATYYCARGVPAYSHGGDLWGQGTLVTVSSASTKGPSVFPLAPSSKSTSGGTAALGCLVKDYFPEPVTVSWNSGALTSGVHTFPAVLQSSGLYSLSSVVTVPSSSLGTQTYICNVNHKPSNTKVDKKVEPKSCDKTHTCPPCPQPELLTGPSVFLFPPKPKDTLMISRTPEVTCVVVDVSDEDPEVKFNWYVDGVEVHNAKTKPREEQYNSTYRVVSVLTVLHQDWLNGKEYKCKVSNKALPKPIEKTISKAKGQPREPQVYTLPPSREEMTKNQVSLTCLVKGFYPSDIAVEWESNGQPENNYKTTPPVLDSDGSFFLYSKLTVDKSRWQQGNVFSCSVMHEALHNHYTQKSLSLSP
light: DIVMTQSPATLSLSPGERATLSCTSSQSVYHANWLSWFQQKPGQPPKLLIYWASTLAYGVPSRFSGSGSGTDFTLTISSLQPEDAATYYCAGGYGGGRYAFGQGTKVEIKRTVAAPSVFIFPPSDEQLKSGTASVVCLLNNFYPREAKVQWKVDNALQSGNSQESVTEQDSKDSTYSLSSTLTLSKADYEKHKVYACEVTHQGLSSPVTKSFNRGEC
notes: copies: 2 + 2
B2: M103205H795-MY471/M103202L889-SK1 (antibody, human IgG1, kappa)
heavy: B1 heavy with Q233R
light: B1 light
notes: copies: 2 + 2
B3: M103205H795-MY472/M103202L889-SK1 (antibody, human IgG1, kappa)
heavy: B1 heavy with Q233S
light: B1 light
notes: copies: 2 + 2
B4: M103205H795-MY476/M103202L889-SK1 (antibody, human IgG1, kappa)
heavy: B1 heavy with Q233Y
light: B1 light
notes: copies: 2 + 2
B5: M103205H795-MY474/M103202L889-SK1 (antibody, human IgG1, kappa)
heavy: B1 heavy with Q233V
light: B1 light
notes: copies: 2 + 2
B6: M103205H795-MY473/M103202L889-SK1 (antibody, human IgG1, kappa)
heavy: B1 heavy with Q233T
light: B1 light
notes: copies: 2 + 2
B7: M103205H795-MY475/M103202L889-SK1 (antibody, human IgG1, kappa)
heavy: B1 heavy with Q233W
light: B1 light
notes: copies: 2 + 2

Experiments:
Assay in all cases: SPR (BIACORE); KD of SG1 divided by KD of variant;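 also: relative to parent M103205H795-SG1 carrying the SG1 human heavy chain constant region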
[1] = biological target: T7, human FcγRIIIaV extracellular domain, His-tagged (human, UniProt P08637 17-208)
T7 construct: also called FcgRIIIaV; not shown: C-terminal His-tag

[2] = biological target: T1, cynomolgus monkey FcγRIIa1 …
[3] = biological target: T2, human FcγRIIaR extracellular domain, …
[4] = biological target: T3, cynomolgus monkey FcγRIIb extracellular …
[5] = biological target: T4, cynomolgus monkey FcγRIIa2 …
[6] = biological target: T5, cynomolgus monkey FcγRIIIaS …
[7] = biological target: T6, cynomolgus monkey FcγRIIa3 …

T7 sequence (P08637 17-208 F176V): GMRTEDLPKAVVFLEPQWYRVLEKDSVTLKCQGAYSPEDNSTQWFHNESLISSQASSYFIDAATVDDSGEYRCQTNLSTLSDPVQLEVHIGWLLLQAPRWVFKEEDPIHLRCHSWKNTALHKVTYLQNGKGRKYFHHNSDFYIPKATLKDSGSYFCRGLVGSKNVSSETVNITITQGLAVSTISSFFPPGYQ

Row | Binder | KD fold (SG1 = 1) [1] [fold] | KD fold (SG1 = 1) [2] [fold] | KD fold (SG1 = 1) [3] [fold] | KD fold (SG1 = 1) [4] [fold] | KD fold (SG1 = 1) [5] [fold] | KD fold (SG1 = 1) [6] [fold] | KD fold (SG1 = 1) [7] [fold]
1 | B1 | 0.2 | 1.5 | 2.5 | 3.3 | 2.8 | 0.2 | 3.5
2 | B2 | 0.2 | 1.2 | 2.5 | 2.6 | 2.4 | 0.2 | 3.8
3 | B3 | 0.1 | 1.5 | 2.2 | 2.7 | 2.4 | 0.2 | 3.3
4 | B4 | 0.1 | 2.3 | 4.4 | 4.6 | 3.9 | 0.2 | 6.5
5 | B5 | 0.2 | 1.6 | 3.2 | 3.6 | 2.8 | 0.2 | 3.5
6 | B6 | 0.2 | 2 | 2.2 | 3.1 | 2 | 0.2 | 3.1
7 | B7 | 0.2 | 3.2 | 3.2 | 8.7 | 3.1 | 0.2 | 7.4
